In article PMC4854210, “IL-27 Promotes Proliferation of Human Leukemic Cell Lines Through the MAPK/ERK Signaling Pathway and Suppresses Sensitivity to Chemotherapeutic Drugs” (Journal of Interferon & Cytokine Research, 2016):

Key:
[1] = target: T1, Recombinant human IL27Rα-Fc chimera (human, UniProt Q6UWB1 33-516); assay: SPR; IL-27Rα-Fc or gp130-Fc captured on mouse anti-human IgG-Fc antibodies amine-coupled to a CM5 chip; IL-27 injected at increasing concentrations (multicycle), 30 μL/min; BIAcore T100, 25°C, HBS-EP+; double referenced; global fit, 1:1 Langmuir model; KD = kd/ka; conditions: both partners purified
T1 construct: IL-27 receptor subunit alpha (IL-27Rα, WSX-1, TCCR), human; Captured on the chip by anti-human IgG-Fc antibodies; also called IL-27Rα-Fc fusion protein; IL-27R-Fc fusion protein; source: bought: R & D Systems
T1 sequence (looked up): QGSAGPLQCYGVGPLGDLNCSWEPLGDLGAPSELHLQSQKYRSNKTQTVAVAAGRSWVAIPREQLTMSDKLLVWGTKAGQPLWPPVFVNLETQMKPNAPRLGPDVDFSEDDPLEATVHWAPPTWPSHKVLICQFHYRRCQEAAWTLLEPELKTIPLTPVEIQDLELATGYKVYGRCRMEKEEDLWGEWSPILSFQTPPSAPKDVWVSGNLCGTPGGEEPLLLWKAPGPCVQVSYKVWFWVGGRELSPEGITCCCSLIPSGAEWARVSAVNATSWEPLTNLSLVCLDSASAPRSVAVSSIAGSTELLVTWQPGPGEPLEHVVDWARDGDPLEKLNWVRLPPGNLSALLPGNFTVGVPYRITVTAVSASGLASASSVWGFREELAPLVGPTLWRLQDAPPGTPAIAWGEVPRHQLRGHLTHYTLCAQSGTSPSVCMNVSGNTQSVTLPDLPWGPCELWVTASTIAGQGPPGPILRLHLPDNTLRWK

[2] = target: T2, Recombinant human gp130-Fc chimera (human, UniProt P40189-1 23-619); assay: as above; conditions: both partners purified
T2 construct: gp130 (interleukin-6 receptor subunit beta), human; Captured on the chip by anti-human IgG-Fc antibodies; also called gp130-Fc fusion protein; source: bought: R & D Systems
T2 sequence (looked up): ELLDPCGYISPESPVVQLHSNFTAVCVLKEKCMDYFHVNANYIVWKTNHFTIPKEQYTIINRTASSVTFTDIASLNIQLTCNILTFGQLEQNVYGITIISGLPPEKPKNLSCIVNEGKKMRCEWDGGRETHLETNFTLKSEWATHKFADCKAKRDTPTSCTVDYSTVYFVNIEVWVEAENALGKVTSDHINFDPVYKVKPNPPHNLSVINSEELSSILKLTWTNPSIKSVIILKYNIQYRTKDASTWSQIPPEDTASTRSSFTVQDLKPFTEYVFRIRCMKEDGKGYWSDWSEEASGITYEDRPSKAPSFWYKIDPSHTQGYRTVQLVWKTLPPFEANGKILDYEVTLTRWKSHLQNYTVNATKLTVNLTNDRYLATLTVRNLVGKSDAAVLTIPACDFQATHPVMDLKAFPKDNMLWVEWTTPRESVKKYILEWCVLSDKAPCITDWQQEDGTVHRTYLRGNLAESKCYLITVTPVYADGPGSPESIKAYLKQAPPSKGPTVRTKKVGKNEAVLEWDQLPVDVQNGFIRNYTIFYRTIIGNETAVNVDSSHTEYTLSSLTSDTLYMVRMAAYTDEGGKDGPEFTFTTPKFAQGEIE

B1: Recombinant human IL-27 (ligand)
chain 1: FPRPPGRPQLSLQELRREFTVSLHLARKLLSEVRGQAHRFAESHLPGVNLYLLPLGEQLPDVSLTFQAWRRLSDPERLCFISTTLQPFHALLGGLGTQGRWTNMERMQLWAMRLDLRDLQRHLRFQVLAAGFNLPEEEEEEEEEEEEERKGLLPGALGSALQGPAQVSWPQLLSTYRLLHSLELVLSRAVRELLLLSKAGHSVWPLGFPTLSPQP
chain 2: RKGPPAALTLPRVQCRASRYPIAVDCSWTLPPAPNSTSPVSFIATYRLGMAARGHSWPCLQQTPTSTSCTITDVQLFSMAPYVLNVTAVHPWGSSSSFVPFITEHIIKPDPPEGVRLSPLAERQLQVQWEPPGSWPFPEIFSLKYWIRYKRQGAARFHRVGPIEATSFILRAVRPRARYYVQVAAQDLTDYGELSDWSLPATATMSLGK
notes: IL-27 subunit p28 (cytokine subunit of the heterodimeric IL-27), human; Epstein-Barr virus-induced gene 3 (EBI3), the soluble cytokine receptor subunit of IL-27, human; also called interleukin-27; source: bought: R & D Systems
**Q.** With B1 as the binder, how does the Kd [1] read?
**A.** 0.0457 nM

**Q.** What about the koff [1] of the same binder?
**A.** 0.00414 s⁻¹

**Q.** And the kon [1]?
**A.** 9.08e+07 M⁻¹ s⁻¹

**Q.** What about the Kd [2] of the same binder?
**A.** 2.74 nM

**Q.** And the koff [2]?
**A.** 456 s⁻¹
